Test results as given in US12281147.

Assays:
[1] = molecular target: human IL-21R (human) (UniProt Q9HBE5); assay: AlphaSeq yeast mating assay, pH 6 media
[2] = molecular target: human IL-21R (human) (UniProt Q9HBE5); assay: AlphaSeq yeast mating assay, pH 7 media
[3] = molecular target: human IL-21R (human) (UniProt Q9HBE5); assay: AlphaSeq yeast mating assay, pH 5 media

| Substance | Kd [1] [µM] | Kd [2] [µM] | Kd [3] [µM] |
| --- | --- | --- | --- |
| IL-21_F79P (from UniProt Q9HBE4 32-152) (ligand) | 7.8 | 3.3 | – |
| IL-21_I95P (from UniProt Q9HBE4 32-152) (ligand) | 3.6 | – | 64 |
| IL-21_L42Y (from UniProt Q9HBE4 32-152) (ligand) | 0.011 | 0.021 | 0.043 |
| IL-21_V57T (from UniProt Q9HBE4 32-152) (ligand) | – | 0.078 | 0.17 |
| IL-21_E72L (from UniProt Q9HBE4 32-152) (ligand) | – | 0.16 | 0.047 |
| IL-21_Q41P (from UniProt Q9HBE4 32-152) (ligand) | 35 | – | – |
| IL-21_F76P (from UniProt Q9HBE4 32-152) (ligand) | 41 | – | 250 |
| IL-21_I43P (from UniProt Q9HBE4 32-152) (ligand) | – | – | 330 |
| IL-21_L42D (from UniProt Q9HBE4 32-152) (ligand) | 14 | – | 1600 |
| IL-21_K104G (from UniProt Q9HBE4 32-152) (ligand) | 0.079 | – | – |
| IL-21_P108Q (from UniProt Q9HBE4 32-152) (ligand) | – | 0.11 | – |
| IL-21_R38M (from UniProt Q9HBE4 32-152) (ligand) | 1.2 | 2 | – |
| IL-21_K106S (from UniProt Q9HBE4 32-152) (ligand) | – | – | 7.3 |
| IL-21_P108T (from UniProt Q9HBE4 32-152) (ligand) | – | 1.1 | 57 |
| IL-21_L49P (from UniProt Q9HBE4 32-152) (ligand) | 55 | – | 330 |
| IL-21_W73V (from UniProt Q9HBE4 32-152) (ligand) | 6.5 | – | 110 |
| IL-21_I45Y (from UniProt Q9HBE4 32-152) (ligand) | 12 | – | – |
| IL-21_W73S (from UniProt Q9HBE4 32-152) (ligand) | – | 0.34 | 39 |
| IL-21_W73N (from UniProt Q9HBE4 32-152) (ligand) | 3.4 | – | 65 |
| IL-21_V57H (from UniProt Q9HBE4 32-152) (ligand) | 0.024 | – | 1.6 |
| IL-21_L49S (from UniProt Q9HBE4 32-152) (ligand) | – | – | 240 |
| IL-21_L56S (from UniProt Q9HBE4 32-152) (ligand) | 46 | 44 | – |
| IL-21_L42S (from UniProt Q9HBE4 32-152) (ligand) | – | 11 | – |
| IL-21_R38A (from UniProt Q9HBE4 32-152) (ligand) | – | – | 15 |
| IL-21_R34F (from UniProt Q9HBE4 32-152) (ligand) | 0.052 | 0.11 | 0.39 |

| Substance | Kd [1] [µM] | Kd [2] [µM] | Kd [3] [µM] |
| --- | --- | --- | --- |
| IL-21_I43S (from UniProt Q9HBE4 32-152) (ligand) | 1.1 | – | 43 |
| IL-21_I45N (from UniProt Q9HBE4 32-152) (ligand) | – | 1 | – |
| IL-21_V57P (from UniProt Q9HBE4 32-152) (ligand) | – | 3 | – |
| IL-21_I100E (from UniProt Q9HBE4 32-152) (ligand) | 78 | – | – |
| IL-21_L61H (from UniProt Q9HBE4 32-152) (ligand) | – | 0.024 | 0.12 |
| IL-21_R105D (from UniProt Q9HBE4 32-152) (ligand) | – | – | 170 |
| IL-21_I96G (from UniProt Q9HBE4 32-152) (ligand) | 52 | – | – |
| IL-21_L120V (from UniProt Q9HBE4 32-152) (ligand) | 0.21 | 0.21 | 1.2 |
| IL-21_P132A (from UniProt Q9HBE4 32-152) (ligand) | 0.024 | 0.12 | – |
| IL-21_V46N (from UniProt Q9HBE4 32-152) (ligand) | 37 | – | – |
| IL-21_I37R (from UniProt Q9HBE4 32-152) (ligand) | 0.17 | 0.2 | – |
| IL-21_L42E (from UniProt Q9HBE4 32-152) (ligand) | – | 26 | – |
| IL-21_N51G (from UniProt Q9HBE4 32-152) (ligand) | – | 0.044 | 0.11 |
| IL-21_D44G (from UniProt Q9HBE4 32-152) (ligand) | 0.05 | 0.2 | – |
| IL-21_V98R (from UniProt Q9HBE4 32-152) (ligand) | – | – | 0.046 |
| IL-21_M39Q (from UniProt Q9HBE4 32-152) (ligand) | 83 | – | – |
| IL-21_V53Q (from UniProt Q9HBE4 32-152) (ligand) | 0.16 | 0.2 | – |
| IL-21_I37N (from UniProt Q9HBE4 32-152) (ligand) | – | 0.33 | 33 |
| IL-21_F79T (from UniProt Q9HBE4 32-152) (ligand) | 3.3 | 1.4 | 92 |
| IL-21_L42G (from UniProt Q9HBE4 32-152) (ligand) | 32 | – | – |
| IL-21_Q48K (from UniProt Q9HBE4 32-152) (ligand) | 0.2 | – | 11 |
| IL-21_L120M (from UniProt Q9HBE4 32-152) (ligand) | 0.036 | 0.056 | 0.052 |
| IL-21_D44T (from UniProt Q9HBE4 32-152) (ligand) | 0.044 | 0.16 | 0.35 |
| IL-21_Q150S (from UniProt Q9HBE4 32-152) (ligand) | – | 0.12 | 0.043 |
| IL-21_P108G (from UniProt Q9HBE4 32-152) (ligand) | – | – | 11 |

| Substance | Kd [1] [µM] | Kd [2] [µM] | Kd [3] [µM] |
| --- | --- | --- | --- |
| IL-21_L49N (from UniProt Q9HBE4 32-152) (ligand) | – | – | 170 |
| IL-21_D33P (from UniProt Q9HBE4 32-152) (ligand) | – | – | 40 |
| IL-21_L56N (from UniProt Q9HBE4 32-152) (ligand) | – | 9.7 | 72 |
| IL-21_D66M (from UniProt Q9HBE4 32-152) (ligand) | – | 0.026 | 0.055 |
| IL-21_L49H (from UniProt Q9HBE4 32-152) (ligand) | – | – | 160 |
| IL-21_Q41K (from UniProt Q9HBE4 32-152) (ligand) | – | 7.2 | 150 |
| IL-21_E59R (from UniProt Q9HBE4 32-152) (ligand) | 1.5 | 0.34 | 41 |
| IL-21_F76H (from UniProt Q9HBE4 32-152) (ligand) | 14 | 9.2 | 79 |
| IL-21_R34N (from UniProt Q9HBE4 32-152) (ligand) | 0.052 | – | 0.96 |
| IL-21_V57M (from UniProt Q9HBE4 32-152) (ligand) | – | 0.025 | 0.057 |
| IL-21_F79K (from UniProt Q9HBE4 32-152) (ligand) | 5.5 | – | – |
| IL-21_I45D (from UniProt Q9HBE4 32-152) (ligand) | 0.19 | – | 20 |
| IL-21_N70A (from UniProt Q9HBE4 32-152) (ligand) | – | 0.094 | 0.033 |
| IL-21_Q80A (from UniProt Q9HBE4 32-152) (ligand) | 12 | – | – |
| IL-21_I96T (from UniProt Q9HBE4 32-152) (ligand) | 66 | – | – |
| IL-21_V57Y (from UniProt Q9HBE4 32-152) (ligand) | 0.016 | – | 0.046 |
| IL-21_I45H (from UniProt Q9HBE4 32-152) (ligand) | 6.2 | – | – |
| IL-21_D33R (from UniProt Q9HBE4 32-152) (ligand) | – | 0.14 | 26 |
| IL-21_F76Q (from UniProt Q9HBE4 32-152) (ligand) | 50 | 63 | – |
| IL-21_L42N (from UniProt Q9HBE4 32-152) (ligand) | 26 | 0.95 | – |
| IL-21_R34A (from UniProt Q9HBE4 32-152) (ligand) | – | – | 0.36 |
| IL-21_L42R (from UniProt Q9HBE4 32-152) (ligand) | – | – | 150 |
| IL-21_I45P (from UniProt Q9HBE4 32-152) (ligand) | – | – | 100 |
| IL-21_F76D (from UniProt Q9HBE4 32-152) (ligand) | 55 | – | – |
